Laboratory results reported in patent publication US20220169728A1 (AB THERAPEUTICS, published 2022).
Positions count from the first letter of the chain named. Numbers in names are those of the source. Each block holds one binder with its values, some of them ahead of it.

Biological target: CD3 (Homo sapiens (Human), UniProt P07766 23-207; P04234 22-171; P09693 23-182)
Assay: cell-based or functional assay

Chain of CD3 (P07766 23-207 limits assumed, chain 1 of 3): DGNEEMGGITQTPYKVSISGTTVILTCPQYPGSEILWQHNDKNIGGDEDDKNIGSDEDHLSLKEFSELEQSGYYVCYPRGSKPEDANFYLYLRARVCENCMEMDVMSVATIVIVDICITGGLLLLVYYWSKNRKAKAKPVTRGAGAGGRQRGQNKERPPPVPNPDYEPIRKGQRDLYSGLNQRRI
Chain of CD3 (P04234 22-171 limits assumed, chain 2 of 3): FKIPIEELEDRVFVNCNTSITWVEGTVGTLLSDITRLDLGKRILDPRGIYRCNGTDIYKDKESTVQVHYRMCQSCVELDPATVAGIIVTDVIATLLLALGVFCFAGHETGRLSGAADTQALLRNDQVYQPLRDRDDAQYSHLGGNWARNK
Chain of CD3 (P09693 23-182 limits assumed, chain 3 of 3): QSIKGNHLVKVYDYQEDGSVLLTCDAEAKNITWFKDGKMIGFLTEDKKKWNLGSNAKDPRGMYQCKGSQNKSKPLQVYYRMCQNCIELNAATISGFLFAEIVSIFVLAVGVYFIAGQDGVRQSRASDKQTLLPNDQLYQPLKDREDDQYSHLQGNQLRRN

Function % 0.025 ug/ml (T cell activation, CD69 on Jurkat cells with Raji cells, against the unmutated baseline): 19%
Function % 2 ug/ml (T cell activation, CD69 on Jurkat cells with Raji cells, against the unmutated baseline): 92%
B3: CD20/CD3 BsMab with common VL (SEQ ID NO: 3) P95A (bispecific antibody, V domains shown)
VH 1: QVQLQQPGAELVKPGASVKMSCKASGYTFTSYNMHWVKQTPGRGLEWIGAIYPGNGDTSYNQKFKGKATLTADKSSSTAYMQLSSLRSEDSAVYYCARSTYYGGDWYFNVWGAGTTVTVSA
VH 2: EVQLQESGAELARPGASVKMSCKASGYTFTSYTMHWVKQRPGEGLEWIGYINPSSGYTKYNQKFKDKATLTADKSSSTAYMELSSLTSEDSAVYYCARWQDYDVYFDYWGEGTTLTVSS
VL: QIVLSQSPAILSASPGEKVTMTCRASSSVSYIHWFQQKPGSSPKPWIYATSNLASGVPVRFSGSGSGTSYSLTISRVEAEDAATYYCQQWTSNPATFGGGTKLEIKR

Function % 0.025 ug/ml (T cell activation, CD69 on Jurkat cells with Raji cells, against the unmutated baseline): 12%
Function % 2 ug/ml (T cell activation, CD69 on Jurkat cells with Raji cells, against the unmutated baseline): 22%
B4: CD20/CD3 BsMab with common VL (SEQ ID NO: 3) N93Y (bispecific antibody, V domains shown)
VH 1: B3 VH 1
VH 2: B3 VH 2
VL: B3 VL with N93Y, A95P

Function % 0.025 ug/ml (T cell activation, CD69 on Jurkat cells with Raji cells, against the unmutated baseline): 96%
Function % 2 ug/ml (T cell activation, CD69 on Jurkat cells with Raji cells, against the unmutated baseline): 97%
B6: CD20/CD3 BsMab with common VL (SEQ ID NO: 3) P95V (bispecific antibody, V domains shown)
VH 1: B3 VH 1
VH 2: B3 VH 2
VL: B3 VL with A95V

Function % 0.025 ug/ml (T cell activation, CD69 on Jurkat cells with Raji cells, against the unmutated baseline): 33%
Function % 2 ug/ml (T cell activation, CD69 on Jurkat cells with Raji cells, against the unmutated baseline): 95%
B9: CD20/CD3 BsMab with common VL (SEQ ID NO: 3) N93V (bispecific antibody, V domains shown)
VH 1: B3 VH 1
VH 2: B3 VH 2
VL: B3 VL with N93V, A95P

The remaining lines, values behind:

B1: CD20/CD3 BsMab with common VL (SEQ ID NO: 3) N93P (bispecific antibody, V domains shown)
VH 1: B3 VH 1
VH 2: B3 VH 2
VL: B3 VL with N93P, A95P
Function % 0.025 ug/ml (T cell activation, CD69 on Jurkat cells with Raji cells, against the unmutated baseline): 9%
Function % 2 ug/ml (T cell activation, CD69 on Jurkat cells with Raji cells, against the unmutated baseline): 51%

B2: CD20/CD3 BsMab with common VL (SEQ ID NO: 3) N93T (bispecific antibody, V domains shown)
VH 1: B3 VH 1
VH 2: B3 VH 2
VL: B3 VL with N93T, A95P
Function % 0.025 ug/ml (T cell activation, CD69 on Jurkat cells with Raji cells, against the unmutated baseline): 21%
Function % 2 ug/ml (T cell activation, CD69 on Jurkat cells with Raji cells, against the unmutated baseline): 98%

B5: CD20/CD3 BsMab with common VL (SEQ ID NO: 3) N93A (bispecific antibody, V domains shown)
VH 1: B3 VH 1
VH 2: B3 VH 2
VL: B3 VL with N93A, A95P
Function % 0.025 ug/ml (T cell activation, CD69 on Jurkat cells with Raji cells, against the unmutated baseline): 12%
Function % 2 ug/ml (T cell activation, CD69 on Jurkat cells with Raji cells, against the unmutated baseline): 80%

B7: CD20/CD3 BsMab with common VL (SEQ ID NO: 3) N93F (bispecific antibody, V domains shown)
VH 1: B3 VH 1
VH 2: B3 VH 2
VL: B3 VL with N93F, A95P
Function % 0.025 ug/ml (T cell activation, CD69 on Jurkat cells with Raji cells, against the unmutated baseline): 11%
Function % 2 ug/ml (T cell activation, CD69 on Jurkat cells with Raji cells, against the unmutated baseline): 70%

B8: CD20/CD3 BsMab with common VL (SEQ ID NO: 3) N93Q (bispecific antibody, V domains shown)
VH 1: B3 VH 1
VH 2: B3 VH 2
VL: B3 VL with N93Q, A95P
Function % 0.025 ug/ml (T cell activation, CD69 on Jurkat cells with Raji cells, against the unmutated baseline): 10%
Function % 2 ug/ml (T cell activation, CD69 on Jurkat cells with Raji cells, against the unmutated baseline): 62%

B10: CD20/CD3 BsMab with common VL (SEQ ID NO: 3) N93G (bispecific antibody, V domains shown)
VH 1: B3 VH 1
VH 2: B3 VH 2
VL: B3 VL with N93G, A95P
Function % 0.025 ug/ml (T cell activation, CD69 on Jurkat cells with Raji cells, against the unmutated baseline): 15%
Function % 2 ug/ml (T cell activation, CD69 on Jurkat cells with Raji cells, against the unmutated baseline): 21%
